From US12559545

Columns and labels:
[1] = molecular target: full-length HeV-RBP expressed on the surface of transfected cells (Hendra virus) (UniProt O89343)
[2] = molecular target: full-length NiVB-RBP expressed on the surface of transfected cells (Nipah virus, strain Bangladesh) (UniProt Q9IH62)
[3] = molecular target: full-length NiVM-RBP expressed on the surface of transfected cells (Nipah virus, strain Malaysia) (UniProt Q9IH62)
[4] = molecular target: HeV RBP on live Hendra virus (Hendra virus) (UniProt O89343); experiment: cell-based or functional assay
[5] = molecular target: NiVB RBP on live Nipah virus Bangladesh (Nipah virus, strain Bangladesh) (UniProt Q9IH62); experiment: cell-based or functional assay
[6] = molecular target: HeV-RBP head domain (residues 185-604), recombinant soluble (Hendra virus) (UniProt O89343); experiment: ELISA, RBP head domain coated on plate, hybridoma IgG
[7] = molecular target: NiVB-RBP head domain (residues 185-602), recombinant soluble (Nipah virus, strain Bangladesh) (UniProt Q9IH62); experiment: as above
[8] = molecular target: NiVM-RBP head domain (residues 183-602), recombinant soluble (Nipah virus, strain Malaysia) (UniProt Q9IH62); experiment: as above
[9] = molecular target: HeV-RBP head domain (residues 185-604), recombinant soluble (Hendra virus) (UniProt O89343); experiment: BLI on HeV RBP head domain, after first mAb HENV-1
[10] = molecular target: HeV-RBP head domain (residues 185-604), recombinant soluble (Hendra virus) (UniProt O89343); experiment: BLI on HeV RBP head domain, after first mAb HENV-2
[11] = molecular target: HeV-RBP head domain (residues 185-604), recombinant soluble (Hendra virus) (UniProt O89343); experiment: BLI on HeV RBP head domain, after first mAb HENV-9
[12] = molecular target: HeV-RBP head domain (residues 185-604), recombinant soluble (Hendra virus) (UniProt O89343); experiment: BLI on HeV RBP head domain, after first mAb HENV-10
[13] = molecular target: HeV-RBP head domain (residues 185-604), recombinant soluble (Hendra virus) (UniProt O89343); experiment: BLI on HeV RBP head domain, after first mAb HENV-18
[14] = molecular target: HeV-RBP head domain (residues 185-604), recombinant soluble (Hendra virus) (UniProt O89343); experiment: BLI on HeV RBP head domain, after first mAb HENV-19
[15] = molecular target: HeV-RBP head domain (residues 185-604), recombinant soluble (Hendra virus) (UniProt O89343); experiment: BLI on HeV RBP head domain, after first mAb HENV-21
[16] = molecular target: HeV-RBP head domain (residues 185-604), recombinant soluble (Hendra virus) (UniProt O89343); experiment: BLI on HeV RBP head domain, after first mAb HENV-26
[17] = molecular target: HeV-RBP head domain (residues 185-604), recombinant soluble (Hendra virus) (UniProt O89343); experiment: BLI on HeV RBP head domain, after first mAb HENV-32
[18] = molecular target: HeV-RBP head domain (residues 185-604), recombinant soluble (Hendra virus) (UniProt O89343); experiment: BLI on HeV RBP head domain, after first mAb HENV-43

Substance: HENV-26 (antibody)
- EC50 [1]: 0.325 µg/mL
- EC50 [2]: 0.326 µg/mL
- EC50 [3]: 0.326 µg/mL
- Area under the curve (neutralization) [4]: 281
- IC50, plaque reduction neutralization of live virus [4]: 0.07 µg/mL
- IC80, plaque reduction neutralization of live virus [4]: 0.19 µg/mL
- Max % Inhibition (neutralization) [4]: 100%
- Area under the curve (neutralization) [5]: 289
- IC50, plaque reduction neutralization of live virus [5]: 0.03 µg/mL
- IC80, plaque reduction neutralization of live virus [5]: 0.12 µg/mL
- Max % Inhibition (neutralization) [5]: 100%
- Area under the curve [6]: 5.39
- EC50 [6]: 0.14 µg/mL
- Area under the curve [7]: 10.5
- EC50 [7]: 0.09 µg/mL
- Area under the curve [8]: 11
- EC50 [8]: 0.07 µg/mL
- % of signal of second mAb alone [9]: 97%
- % of signal of second mAb alone [10]: 97%
- % of signal of second mAb alone [11]: 97%
- % of signal of second mAb alone [12]: 100%
- % of signal of second mAb alone [13]: 91%
- % of signal of second mAb alone [14]: 91%
- % of signal of second mAb alone [15]: 99%
- % of signal of second mAb alone [16]: -5%
- % of signal of second mAb alone [17]: 100%
- % of signal of second mAb alone [18]: 109%
